The values that follow come from patent US20170088610A1 (RINAT NEUROSCIENCE, published 2017).

Numbering of substitutions follows the chain as printed. In names and notes the source's numbering stands.

B1: 8L2-6D5 (CDR-grafted antibody with framework mutation V71K) (Fab, V domains shown)
VH: QVQLQESGPGLVKPSETLSLTCTVSGFSLIGYDINWIRQPPGKGLEWIGMIWGDGTTDYNSALKSRVTISKDTSKNQFSLKLSSVTAADTAVYYCARGGYYYGTSYYFDYWGQGTLVTVS
VL: DIQMTQSPSSLSASVGDRVTITCRASQDISNHLNWYQQKPGKAPKLLIYYISRFHSGVPSRFSGSGSGTDFTFTISSLQPEDIATYYCQQSKTLPYTFGQGTKLEIKR
notes: Fab (human IgG2 CH1 + C-kappa, His tag at heavy chain C terminus); also called 8L2-6D5 Fab; 8L2-6D5 (control)
B2: 8L2-6D5 template Fab with L_S91E; L_K92A and H_Y101W; H_G103A (Fab, V domains shown)
VH: B1 VH with Y101W, G103A
VL: B1 VL with S91E, K92A
notes: See note of m8
B3: H19-L129 template Fab with L_S91E; L_K92K and H_Y101Y; H_G103A (Fab, V domains shown)
VH: B1 VH with I34L, M50I, L63V, G103A
VL: B1 VL with D28S, H32N, I51T, S91E
notes: See note of m8
B4: H19-L129 template Fab with L_S91E; L_K92R and H_Y101Y; H_G103A (Fab, V domains shown)
VH: B1 VH with I34L, M50I, L63V, G103A
VL: B1 VL with D28S, H32N, I51T, S91E, K92R
notes: See note of m8
B5: H19-L129 template Fab with L_S91E; L_K92S and H_Y101W; H_G103S (Fab, V domains shown)
VH: B1 VH with I34L, M50I, L63V, Y101W, G103S
VL: B1 VL with D28S, H32N, I51T, S91E, K92S
notes: See note of m8
B6: light chain library clone L129 (Fab, V domains shown)
VH: B1 VH
VL: B1 VL with D28S, H32N, I51T
notes: paired with the CDR-grafted heavy chain; See note of m8
B7: heavy chain library clone H227 (Fab, V domains shown)
VH: B1 VH with N35S, M50Q, A62S, L63V
VL: B1 VL
notes: See note of m8
B8: light chain library clone L208 (Fab, V domains shown)
VH: B1 VH
VL: B1 VL with D28Y, I51T
notes: See note of m8
B9: heavy chain library clone H18 (Fab, V domains shown)
VH: B1 VH with I34A, N35T, M50G, L63V
VL: B1 VL
notes: See note of m8
B10: heavy chain library clone H225 (Fab, V domains shown)
VH: B1 VH with I34V, N35T, M50G, A62S, L63V
VL: B1 VL
notes: See note of m8
B11: light chain library clone L81 (Fab, V domains shown)
VH: B1 VH
VL: B1 VL with S26F, D28A, H32Q, S56T
notes: See note of m8
B12: heavy chain library clone H109 (Fab, V domains shown)
VH: B1 VH with I34S, M50I
VL: B1 VL
notes: paired with the CDR-grafted light chain; See note of m8
B13: heavy chain library clone H28 (Fab, V domains shown)
VH: B1 VH with I34S, N35T, M50S
VL: B1 VL
notes: See note of m8
B14: heavy chain library clone H9 (Fab, V domains shown)
VH: B1 VH with I34V, N35S, M50I, A62S, L63V
VL: B1 VL
notes: See note of m8
B15: light chain library clone L6 (Fab, V domains shown)
VH: B1 VH
VL: B1 VL with S26F, D28S, H32Q, I51A
notes: See note of m8
B16: heavy chain library clone H19 (Fab, V domains shown)
VH: B1 VH with I34L, M50I, L63V
VL: B1 VL
notes: See note of m8
B17: light chain library clone L97 (Fab, V domains shown)
VH: B1 VH
VL: B1 VL with D28S, H32Q, I51V
notes: See note of m8
B18: heavy chain library clone H222 (Fab, V domains shown)
VH: B1 VH with I34V, N35T, M50G, L63V
VL: B1 VL
notes: See note of m8
B19: 8L2-4D5 (CDR-grafted antibody, template) (Fab, V domains shown)
VH: B1 VH with K71V
VL: B1 VL
B20: 8L2-6D5 Fab with CDR H3 mutation Y110S (Fab, V domains shown)
VH: B1 VH with Y110S
VL: B1 VL
notes: See note of m8
B21: 8L2-6D5 Fab with CDR H3 mutation Y110R (Fab, V domains shown)
VH: B1 VH with Y110R
VL: B1 VL
notes: See note of m8
B22: 8L2-6D5 Fab with CDR L3 mutation S91E (Fab, V domains shown)
VH: B1 VH
VL: B1 VL with S91E
notes: E91 is the E3 residue, so it is kept; See note of m8
B23: 8L2-6D5 Fab with CDR H3 mutation Y110K (Fab, V domains shown)
VH: B1 VH with Y110K
VL: B1 VL
notes: See note of m8
B24: 8L2-6D5 Fab with CDR H3 mutation Y110T (Fab, V domains shown)
VH: B1 VH with Y110T
VL: B1 VL
notes: See note of m8
B25: 8L2-6D5 Fab with CDR L3 mutation Y96R (Fab, V domains shown)
VH: B1 VH
VL: B1 VL with Y96R
notes: See note of m8

Chain of rat nerve growth factor (P25427 122-241 limits assumed): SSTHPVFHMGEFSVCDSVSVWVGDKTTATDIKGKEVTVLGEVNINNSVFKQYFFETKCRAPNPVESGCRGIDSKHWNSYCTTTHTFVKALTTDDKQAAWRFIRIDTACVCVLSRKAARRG

For the first assay, the target named is T1, human nerve growth factor (human, UniProt P01138 122-241).
T1 construct: Immobilised on CM5 chips for BIAcore, soluble in neuron survival assays; also called human NGF; hNGF
T1 sequence (P01138 122-241 limits assumed): as the sequence (P25427 122-241 limits assumed) above, with T3S, V6I, M9R, T37M, A60D, E65D, T92M, D94G, A117V, G120A counted along it
Put plainly: BIAcore SPR screen, Fab over immobilised human NGF; KD calculated from koff with kon 4e4 M-1s-1. On the procedure: (§1) A screening BIAcore assay was optimized to determine the affinity of Fab clones from libraries. Supernatants of small culture lysates were injected at […] for 2 min. Dissociation times of 10 to 15 minutes were used for determination of a single exponential dissociation rate (koff) using BIAevaluation software. […] Clones showing improved (slower) koff values were expressed at large scale and full kinetic parameters, kₒₙ and koff, were determined on purified protein.
Take B1: the Kd is 25 nM.

In the case of B2, the Kd is 13 nM.

With B3, the Kd is 0.5 nM.

With B4, the Kd is 0.37 nM.

With B5, the Kd was 1.1 nM.

In a further assay the target is T1, human nerve growth factor. The assay is described as above. The source holds these as a separate data set. How it is done:
as §1
(§2) For affinity screening experiments, each library was further paired with the corresponding CDR-grafted light or heavy chain (for example, the H1/H2 library was paired with CDR-grafted light chain), the antibody was expressed, and affinity to human NGF of the individual clones was screened using the BIACORE surface plasmon resonance (SPR) system (BIAcore, Inc. Piscataway, N.J.) according to the manufacturer's instructions and as described above. koff, kₒₙ and KD were determined. Antibody clones were ranked based on koff rates, since generally most variation in affinity is seen in koff rates, and further because koff rates are independent of antibody concentration.
Regarding B6, the Kd was 11 nM.

As for B7, the Kd is 13.5 nM.

Take B8: the dissociation constant Kd was 11 nM.

Turning to B1, the Kd was 25 nM.

In the case of B9, the Kd is 10.5 nM.

For the molecule B10, the Kd is 9.5 nM.

With B11, the Kd is 18 nM.

As for B12, the dissociation constant (Kd) is 4 nM.

As for B13, the Kd is 18.7 nM.

Regarding B14, the Kd is 10.2 nM.

Turning to B15, the Kd is 20 nM.

On to B16, for which the dissociation constant (Kd) was 6 nM.

In the case of B17, the Kd was 14 nM.

Consider B18, for which the Kd was 9.5 nM.

The target in another assay is T1, human nerve growth factor. The assay is described as follows: BIAcore SPR screen, Fab over immobilised human NGF. How it is done:
as §1, §2
Consider B6, for which the koff was 0.00045 s⁻¹.

Turning to B7, the koff came to 0.00054 s⁻¹.

In the case of B8, the koff was found to be 0.00046 s⁻¹.

Regarding B1, the koff amounted to 0.001 s⁻¹.

B9 showed a koff of 0.00042 s⁻¹.

For B10, the koff is 0.00038 s⁻¹.

On to B11, for which the koff is 0.00074 s⁻¹.

Turning to B12, the koff came to 0.00016 s⁻¹.

On to B13, for which the off-rate constant (koff) was found to be 0.00075 s⁻¹.

In turn, B14 displayed an off-rate (koff) of 0.00041 s⁻¹.

Take B15: the koff turned out to be 0.00082 s⁻¹.

B16 displayed a dissociation rate constant (koff) of 0.00024 s⁻¹.

B17 yielded a koff of 0.00056 s⁻¹.

Regarding B18, the koff was found to be 0.00038 s⁻¹.

Another assay deals with T1, human nerve growth factor. The assay is described as follows: BIAcore SPR, Fab over immobilised human NGF.
Regarding B19, the Kd is ~38 nM.

On to B1, for which the Kd is ~15 nM.

Another assay concerns the target rat nerve growth factor (rat, UniProt P25427 122-241). Put plainly: cell-based or functional assay.
Turning to B1, the “IC50, rat NGF-dependent survival of mouse E13.5 trigeminal neurons (1.5 pM NGF)” value is 169 pM and the “IC50, rat NGF-dependent survival of mouse E13.5 trigeminal neurons (15 pM NGF)” value turned out to be 730 pM.

The next assay deals with T1, human nerve growth factor. Put plainly: cell-based or functional assay.
Consider B1, for which the “IC50, human NGF-dependent survival of mouse E13.5 trigeminal neurons (1.5 pM NGF)” value came to 462 pM and the “IC50, human NGF-dependent survival of mouse E13.5 trigeminal neurons (15 pM NGF)” value came to 1580 pM.

The target of another assay is T1, human nerve growth factor. The assay is described as follows: BIAcore SPR screen, Fab over immobilised human NGF. This is another data set of the same source. How it is done:
as §1
(§3) 20-80 clones from each small library were screened using BIAcore analysis as described herein. Samples were simultaneously analyzed by BIAcore for binding affinity to NGF in one channel of the BIAcore chip and for presence of Fab by binding to a penta-histag antibody in another channel of the sensor chip, to detect the his tag at the C terminus of the heavy chain. Clones that expressed protein were classified as having the same affinity, worse affinity, better affinity or no binding, using koff to classify: The results of this analysis are shown in Table 5.
B20 registered a koff of 0.0015 s⁻¹.

In turn, B21 returned a koff of 0.0016 s⁻¹.

For the molecule B1, the koff came to 0.001 s⁻¹.

In the case of B22, the koff stood at 0.00025 s⁻¹.

B23 displayed a koff of 0.0014 s⁻¹.

On to B24, for which the koff came to 0.0017 s⁻¹.

In turn, B25 came in with a koff of 0.0017 s⁻¹.

The target of the next assay is T1, human nerve growth factor. The assay is described as follows: BIAcore SPR screen, Fab over immobilised human NGF. The source holds these as a separate data set. On the procedure: as §1
Take B1: the koff worked out at 0.001 s⁻¹.

As for B2, the koff is 0.00055 s⁻¹.

As for B3, the koff is 2e-05 s⁻¹.

Consider B4, for which the koff turned out to be 1.5e-05 s⁻¹.

In turn, B5 gave a koff of 4.7e-05 s⁻¹.

The next assay addresses T1, human nerve growth factor. Put plainly: BIAcore SPR screen, Fab over immobilised human NGF; KD calculated from koff with kon 4e4 M-1s-1. The source holds these as a separate data set. On the procedure: as §1, §3
For B20, the Kd was 37 nM.

With B21, the Kd is 40 nM.

As to B1, the Kd was 25 nM.

Turning to B22, the Kd is 6 nM.

On to B23, for which the Kd is 35 nM.

In the case of B24, the Kd is 42 nM.

Consider B25, for which the Kd is 42 nM.
